Assay results reported in paper PMC9876794 (2022).

B1: D162 (antibody, V domains shown)
VH: QVQLVESGGGVVQPGGSLRLSCAASGFTFSSYGMHWVRQAPGKGLEWVAFIRYDGSNKYYADSVKGRFTISRDNSKNTLYLQMNSLRAEDTAVYYCAKDQYYYGSGSYPWFDPWGQGTLVTVSS
VL: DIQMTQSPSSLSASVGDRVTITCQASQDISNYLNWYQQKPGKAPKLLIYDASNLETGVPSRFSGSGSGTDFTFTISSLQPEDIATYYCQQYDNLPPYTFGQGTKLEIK
B2: C2744 (antibody, V domains shown)
VH: EVQLLESGGGLVQTGGSLRLSCAASGFTFSSYAMSWVRQAPGKGLEWVSAISGTGGSTYYADSVKGRFTISRDHSKNTLYLQMNSLRAEDTAVYYCAKPINMIDPHDAFDIWGQGTMVTVSS
VL: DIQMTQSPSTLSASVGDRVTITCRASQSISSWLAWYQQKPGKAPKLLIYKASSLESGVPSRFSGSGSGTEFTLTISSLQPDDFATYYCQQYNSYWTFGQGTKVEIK
B3: D001 (antibody, V domains shown)
VH: QVQLVESGGGVVQPGRSLRLSCAASGFTFSSYGMHWVRQAPGKGLEWVAVISYDGSNKYYVDSVKGRFTISRDNSKNTLYLQMNSLRAEDTAVYYCAKEGGSYYGGGGYFDYWGQGTLVTVSS
VL: DIQMTQSPSSLSASVGDRVTITCQASQDISNYLHWYQQKPGKAPKLLIYDASNLETGVPSRFSGSGSGTDFTLTISSLQPEDIATYYCQQYDNLPYTFGQGTKLEIK
B4: D102 (antibody, V domains shown)
VH: QVQLVESGGGVVQPGGSLRLSCAASGFTFSSYGMHWVRQAPGKGLEWVAFIRYDGSNKYYADSVKGRFTISRDNSKNTLYLQMNSLRAEDTAVYYCAKTLGYYYDSSGYYLDYWGQGTLVTVSS
VL: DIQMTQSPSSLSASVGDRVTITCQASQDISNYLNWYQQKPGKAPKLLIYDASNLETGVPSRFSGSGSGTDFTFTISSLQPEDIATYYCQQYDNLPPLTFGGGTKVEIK
B5: D040 (antibody, V domains shown)
VH: QVQLVESGGGVVQPGRSLRLSCAASGFTFSSYGMHWVRQAPGKGLEWVTAISYDGSNKYYADSVRGRFTISRDNSKRTLYLQMNSLRAEDTAVYYCAKGVGPYCSGGSCYSPYFDYWGQGTLVTVSS
VL: DIQMTQSPSSLSASIGDRVTITCQANQDISNYLNWYQQKPRKAPKLLIYDASDLETGVPSRFSGSGSGTDFTFTISSLQPEDIATYYCQQSDNLPLTFGGGTKVEIK
B6: D035 (antibody, V domains shown)
VH: EVQLVESGGGLVQPGRSLRLSCAASGFTFDDYAMHWVRQAPGKGLEWVSGISWNSGSIGYADSVKGRFTISRDNAKNSLYLQMNSLRAEDTALYYCAKDTVAGLPYWYFDLWGRGTLVTVSS
VL: not shown
B7: D028 (antibody, V domains shown)
VH: QVQLVQSGAEVKKPGASVKVSCKASGYTFISYYVHWVRQAPGQGLEWMGIINPSGGSTSYTQKFQGRVTMTRDTSTSTVYMELSSLRFEDTAVYYCATEGGMITENSSLHWGQGTLVTVSS
VL: DIQMTQSPSTLSASVGDRVTITCRASQSISSWLAWYQQKPGKAPKLLIYKASSLESGVPSRFSGSGSGTEFTLAISSLQPDEFATYYCQQYNSYPWTFGQGTKVEIK
B8: D160 (antibody, V domains shown)
VH: QVQLVQSGAEVKKPGASVKVSCKASGYTFTTYGFSWVRQAPGQGLEWMGWISGYNGNTHYAQKVQGRVTMTTDTSTTTAYMELRSLTYDDTAVYYCARAGDDEANAFDIWGQGTMVTVSS
VL: DIQMTQSPSTLSASVGDRVTITCRASQTISIWLAWYQQKPGKAPKLLIYKASKIQSGVPSRFSGSESGTEFTLTISSLQPDDFATYYCQQYNSYPLTFGGGTKVESK
B9: C2729 (antibody, V domains shown)
VH: QLQLQESGPGLVKPSETLSLTCTVSGGSISSSSYYWGWIRQPPGKGLEWIGSIYYSGSTYYNPSLKSRVTISVDTSKNQFSLKLSSVTAADTAVYYCARRWIQLWSGFDPWGQGTLVTVSS
VL: DIQLTQSPSFLSASVGDRVTITCRASQGISSYLAWYQQKPGKAPKLLIYAASTLQSGVPSRFSGSGSGTEFTLTISSLQPEDFATYYCQQLNSYSITFGQGTRLEIK
B10: D143 (antibody, V domains shown)
VH: EVQLVESGGGLVQPGGSLRLSCAASGFTFSSYSMNWVRQAPGKGLEWVSYISSSSSTIYYADSVKGRFTISRDNAKNSLYLQMNSLRDEDTAVYYCASHYGAPTSYYYYGMDVWGQGTTVTVSS
VL: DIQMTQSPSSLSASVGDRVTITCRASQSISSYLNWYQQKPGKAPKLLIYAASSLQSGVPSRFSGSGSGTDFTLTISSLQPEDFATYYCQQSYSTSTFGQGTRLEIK
B11: C2732 (antibody, V domains shown)
VH: EVQLVESGGGLVQPGRSLRLSCAASGFTFDDYAMHWVRQAPGKGLEWVSGISWNSGSIGYADSVKGRFTISRDNAKNSLYLQMNSLRAEDTALYYCAKDIGRIAEGYGMDVWGQGTTVTVSS
VL: QSALTQPASVSESPGQSITISCTGTSSDIGGYNYVSWYQQHPGKAPKLMIYEVSNRPSGVSNRFSGSKSGNTASLTISGLQAEDEADYYCSSYTSSSTVVFGGGTKLTVL
B12: D168 (antibody, V domains shown)
VH: EVQLVESGGGLVKPGGSLRLSCAASGFTFSSYSMNWVRQAPGKGLEWVSSISSSSSYIYYADSVKGRFTISRDNAKNSLYLQMNSLRAEDTAVYYCARDLGTAIVYVREKYYYGMDVWGQGTTVTVSS
VL: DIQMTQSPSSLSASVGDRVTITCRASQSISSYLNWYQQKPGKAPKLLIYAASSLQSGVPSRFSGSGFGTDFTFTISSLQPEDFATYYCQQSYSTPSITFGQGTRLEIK
B13: C2691 (antibody, V domains shown)
VH: EVQLVESGGGLVQPGRSLRLSCAASGFTFDDYAMHWVRQAPGKGLEWVSGISWNSGSIGYADSVKGRFTISRDNAKNSLYLQMNSLRAEDTALYYCAKDNRLDTMVRGGRVDAFDIWGQGTMVTVSS
VL: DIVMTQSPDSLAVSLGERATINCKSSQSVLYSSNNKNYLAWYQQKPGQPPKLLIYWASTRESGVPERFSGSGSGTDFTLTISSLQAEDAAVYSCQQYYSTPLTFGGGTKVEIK
B14: D081 (antibody, V domains shown)
VH: QVQLQESGPGLVKPSQTLSLTCTVSGGSISSGDYYWSWIRQPPGKGLEWIGYIYYSGSTYYNPSLKSRVTISVDTSKNQFSLKLSSVTAADTAVYYCARVAGIVNWFDPWGQGTLVTVSS
VL: NFMLTQPHSVSESPGKTVTISCTGSSGSIASNYVQWYQQRPGSAPTTVIYEDNQRPSGVPDRFSGSIDSSSNSASLTISGLKTEDEADYYCQSYDSSNQVFGGGTKLTVL
B15: D131 (antibody, V domains shown)
VH: QVQLVQSGAEVKKPGASVKVSCKASGYTFTSYGISWVRQAPGQGLEWMGWISAYNGNTNYVQKLQGRVTMTTDTSTSTAYMELRSLRSDDTAVYYCARVQYYYGSGSYRSTYYFDYWGQGTLVTVSS
VL: QPVLTQSSSASASLGSSVKLTCTLSSGHSSYIIAWHQQQPGKAPRYLMNLEGSGSYNKGSGVPDRFSGSSSGADRYLTISNLQSEDEADYYCETWDSNIWVFGGGTKLTVL
B16: D137 (antibody, V domains shown)
VH: QVQLVQSGAEVKKPGASVKVSCKASGYTFTSYDINWVRQATGQGLEWMGWMNPNSGNTGYAQKFQGRVTMTRNTSISTAYMELSSLRSEDTAVYYCARAYCSGGSCYSQPWGQGTLVTVSS
VL: QSALTQPPSASGSPGQSVTISCTGTSSDVGGYNYVSWYQQHPGKAPKLMIYEVSKRPSGVPDRFSGSKSGNTASLTVSGLQAEDEADYYCSSYAGSNNWVFGGGTKLTVL
B17: D054 (antibody, V domains shown)
VH: QVQLVQSGAEVKKPGASVKVSCKASGYTFTSYYMHWVRQAPGQGLEWMGIINPSGGSTSYAQKFQGRVTMTRDTSTSTVYMELSSLRSEDTAVYYCARESGTGFGELPKGGPFDYWGQGTLVTVSS
VL: not shown
B18: D073 (antibody, V domains shown)
VH: QLQLQESGPGLVKPSETLSLTCTVSGGSMSSGSYYWGWIRQPPGKGLEWIGSIFYSGSTYYNPSLKSRVTISIDTSKRQFSLNLRSVTAADKAVYYCARQDIMGYSDVWGEGTTVTVSS
VL: EIVLTQSPGTLSLSPRERATLSCRASQSITSTYFAWYQQRPGQAPRLLIYDGSRRATGIPDRFSASGSGTDFTLTISGLEAEDFAVYYCQQYLRLPYTFGQGTKLEIK
B19: D184 (antibody, V domains shown)
VH: QVQLVQSGAEVKKPGSSVKVSCKASGGTFSSYAISWVRQAPGQGLEWMGGIIPIFGTANYAQKFQGRVTITADESTSTAYMELSSLRSEDTAVYYCARGRGSTYYYYYYMDVWGKGTTVTVSS
VL: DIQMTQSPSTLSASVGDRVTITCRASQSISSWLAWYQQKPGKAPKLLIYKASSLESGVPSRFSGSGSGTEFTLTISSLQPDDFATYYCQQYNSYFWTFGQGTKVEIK
B20: D030 (antibody, V domains shown)
VH: QVQLVQSGAEVKKPGASVKVSCKASGYTFTSYDINWVRQATGQGLEWMGWMNPNSGNTGYAQKFQGRVTMTRNTSISTAYMELSSLRSEDTAVYYCARDGSGPYDILTGYGMDVWGQGTTVTVSS
VL: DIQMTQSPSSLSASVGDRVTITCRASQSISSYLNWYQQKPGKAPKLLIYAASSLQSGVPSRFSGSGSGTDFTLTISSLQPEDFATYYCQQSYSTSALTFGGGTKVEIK
B21: D079 (antibody, V domains shown)
VH: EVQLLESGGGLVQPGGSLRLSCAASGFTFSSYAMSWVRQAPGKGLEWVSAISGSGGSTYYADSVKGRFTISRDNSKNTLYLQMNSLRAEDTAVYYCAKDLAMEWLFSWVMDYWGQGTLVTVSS
VL: QSALTQPASVSGSPGQSITISCTGTSSDVGGYNYVSWYQQHPGKAPKIMIYDVSNRPSGVFNRFFGSKSGNTASLTIFGLQAEDEADYYCSSYTSSSTLGVFGGGTKLTVL
B22: D104 (antibody, V domains shown)
VH: QVQLQQWGAGLLKPSETLSLTCAVYGESFSGHYWTWIRQPPGKGLEWIGEINHRGSTDYHASLKSRVSISIDTSKNQFSLRLKSVTAAETAIYYCARGRSAWPRRSFAFWGQGILVTVSS
VL: DIQMTQSPSTLSASVGDRVTITCRASQSISTSLAWYQQKPGKAPKLLIYESSTLESGIPSRFSGSGFRTGFTLTISSLQPDDVATYYCQHYNASPYTFGQGTKLEIK
B23: D107 (antibody, V domains shown)
VH: QVQLVQSGAEVKKPGASVKVSCKASGYTFTSYDINWVRQATGQGLEWMGWMNPNSGNTGYAQKFQGRVTMTRNPSISTAYMELSSLTSDDTAVYYCATALPWDGYNPYYFHYWGQGTLVTVSS
VL: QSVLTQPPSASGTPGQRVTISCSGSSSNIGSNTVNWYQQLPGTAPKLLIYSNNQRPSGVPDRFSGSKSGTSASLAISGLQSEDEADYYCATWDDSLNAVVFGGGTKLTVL
B24: D166 (antibody, V domains shown)
VH: EVQLVESGGGLVQPGGSLRLSCAASGFTFSSYDMHWVRQATGKGLEWVSAIGTAGDTYYPGSVKGRFTISRENAKNSLYLQMNSLRAGDTAVYYCARVSYDSSGYYWVFDYWGQGTLVTVSS
VL: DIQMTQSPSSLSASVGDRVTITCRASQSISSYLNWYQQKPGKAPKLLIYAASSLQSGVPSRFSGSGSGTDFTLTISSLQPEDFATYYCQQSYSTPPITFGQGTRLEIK
B25: C2706 (antibody, V domains shown)
VH: EVQLVESGGGVVQPGGSLRLSCAASGFTFSSYGMHWVRQAPGKGLEWVAFIRYDGSNKYYADSVKGRFTISRDNSKNTLYLQMNSLRAEDTAVYYCAKVGGRYSGYEGYFDYWGQGTLVTVSS
VL: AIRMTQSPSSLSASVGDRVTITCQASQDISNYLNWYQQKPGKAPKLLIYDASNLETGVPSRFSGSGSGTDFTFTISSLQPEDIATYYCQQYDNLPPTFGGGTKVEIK
B26: D032 (antibody, V domains shown)
VH: QVQLVESGGGVVQPGRSLRLSCAASGFTFSSYGMHWVRQAPGKGLEWVAVISYDGSNKYYADSVKGRFTISRDNSKNTLYLQMNSLRAEDTAVYYCAKVETVVDSDYYYYYGMDVWGQGTTVTVSS
VL: SYVLTQPPSVSVSPGQTARITCSGDALPKQYAYWYQQKPGQAPVLVIYKDSERPSGIPERFSGSSSGTTVTLTISGVQAEDEADYYCQSADSSGTYWVFGGGTKLTVL

The binders below were run against T1, SARS-CoV-2 spike RBD (WT) (Severe acute respiratory syndrome …, UniProt P0DTC2) (assay: BLI).
Work on B1 yielded a Kd of 1440 nM.
With B2 the Kd was 248 nM.
B3 showed a Kd of 16.6 nM.
With B4 the Kd was 49.1 nM.
B5 showed a Kd of 32 nM.

Each binder was assayed against T1, SARS-CoV-2 spike RBD (WT) (assay: ELISA).
Design: unit not given here
B1 was tested, and the binding score was 958.
Work on B2 yielded a binding score of 5390.
With B3 the binding score was 77.6.
Binder B4 has a binding score of 22.3.
B5 gave a binding score of 7.71.
In the case of B6, the binding score is reported as > 10000.
For B7, the binding score was > 10000.
In the case of B8, the binding score is reported as 491.
With B9 the binding score was > 10000.
B10 showed a binding score of 39.5.
With B11 the binding score was 376.
B12 gave a binding score of 4730.
For B13, the binding score was > 10000.
B14 was tested, and the binding score was > 10000.
In the case of B15, the binding score is reported as > 10000.
B16 showed a binding score of 395.
For B17, the binding score was > 10000.
B18 was tested, and the binding score was > 10000.
B19 was tested, and the binding score was 8050.
In the case of B20, the binding score is reported as > 10000.
In the case of B21, the binding score is reported as > 10000.
For B22, the binding score was > 10000.
With B23 the binding score was > 10000.
In the case of B24, the binding score is reported as 2870.
In the case of B25, the binding score is reported as > 10000.
B26 was tested, and the binding score was > 10000.
